Data as given in patent US20260167959A1, “APTAZYME-BASED REGULATABLE GENE EXPRESSION SYSTEMS” (REJUVENATE BIO INC, priority 2022, published 2026).
Positions count from the first letter of the chain named.

B1: RA222 (nucleic acid)
DNA: GCGCGTCCTGGATTCGCGGAAACGCGTACATCCAGCTGACAGAATACCAGCATCGTCTTGATGCCCTTGGAAGTCTGAGTCCCAAATAGGACGAAACGCGC
modifications: expressed or natural sequence
B2: RA218 (nucleic acid)
DNA: GCGCGTCCTGGATTCGCGGAAACGCGTACATCCAAGTGATACCAGCATCGTCTTGATGCCCTTGGCAGCACTGCTGACGAGTCCCAAATAGGACGAAACGCGC
modifications: expressed or natural sequence
B3: RA224 (nucleic acid)
DNA: GCGCGTCCTGGATTCGCGGAAACGCGTACATCCAGCTGACGAGTCCCAAATAGAGAATACCAGCATCGTCTTGATGCCCTTGGAAGTCTGACGAAACGCGC
modifications: expressed or natural sequence
B4: RA230 (nucleic acid)
DNA: GCGCGTCCTGAGAATACCAGCATCGTCTTGATGCCCTTGGAAGTCTCGGATTCGCGGAAACGCGTACATCCAGCTGACGAGTCCCAAATAGGACGAAACGCGC
modifications: expressed or natural sequence
B5: RA217 (nucleic acid)
DNA: GCGCGTCCTGGATTCCGAGAATACCAGCATCGTCTTGATGCCCTTGGAAGTCTCGGCGGAAACGCGTACATCCAGCTGACGAGTCCCAAATAGGACGAAACGCGC
modifications: expressed or natural sequence
B6: RA235 (nucleic acid)
DNA: GCGCGTCCTGGATTCGCGGAAACGCGTACATCCAGCTGACGAGTCCCAAATAGGAGAGAATACCAGCATCGTCTTGATGCCCTTGGAAGTCTCCGAAACGCGC
modifications: expressed or natural sequence
B7: RA212 (nucleic acid)
DNA: GCGCGTCCTGGATTCAGAATACCAGCATCGTCTTGATGCCCTTGGAAGTCTGCGGAAACGCGTACATCCAGCTGACGAGTCCCAAATAGGACGAAACGCGC
modifications: expressed or natural sequence
B8: RA229 (nucleic acid)
DNA: GCGCCGGAATACCAGCATCGTCTTGATGCCCTTGGAAGTCCGGCGTCCTGGATTCGCGGAAACGCGTACATCCAGCTGACGAGTCCCAAATAGGACGAAACGCGC
modifications: expressed or natural sequence
B9: RA214 (nucleic acid)
DNA: GCGCGTCCTGGATTCGCGAGAATACCAGCATCGTCTTGATGCCCTTGGAAGTCTCGGAAACGCGTACATCCAGCTGACGAGTCCCAAATAGGACGAAACGCGC
modifications: expressed or natural sequence
B10: RA236 (nucleic acid)
DNA: GCGCGTCCTGGATTCGCGGAAACGCGTACACCGGAATACCAGCATCGTCTTGATGCCCTTGGAAGTCCGGTCCAGCTGACGAGTCCCAAATAGGACGAAACGCGC
modifications: expressed or natural sequence
B11: RA231 (nucleic acid)
DNA: GCGAGAATACCAGCATCGTCTTGATGCCCTTGGAAGTCTCGCGTCCTGGATTCGCGGAAACGCGTACATCCAGCTGACGAGTCCCAAATAGGACGAAACGCGC
modifications: expressed or natural sequence
B12: RA233 (nucleic acid)
DNA: B11 DNA with G3A, A4G, G5T, A6G, A34C, T37C, C38A, T39C, C40T
modifications: expressed or natural sequence
B13: RA227 (nucleic acid)
DNA: GCGCGTCCGAGAATACCAGCATCGTCTTGATGCCCTTGGAAGTCTCGCTGGATTCGCGGAAACGCGTACATCCAGCTGACGAGTCCCAAATAGGACGAAACGCGC
modifications: expressed or natural sequence
B14: RA021 (nucleic acid)
DNA: GCGCGTCCTGGATTCGCGGAAACGCGTACATCCAGCTGACGAGTCCCAAATAGAGTGATACCAGCATCGTCTTGATGCCCTTGGCAGCACTGACGAAACGCGC
modifications: expressed or natural sequence
B15: RA225 (nucleic acid)
DNA: GCGCGTCCTGGATTCGCGGAAACGCGTACATCCAGCTGACGAGTCCCAAATAAGAATACCAGCATCGTCTTGATGCCCTTGGAAGTCTGGACGAAACGCGC
modifications: expressed or natural sequence
B16: RA223 (nucleic acid)
DNA: GCGCGTCCTGCGAGAATACCAGCATCGTCTTGATGCCCTTGGAAGTCTCGGATTCGCGGAAACGCGTACATCCAGCTGACGAGTCCCAAATAGGACGAAACGCGC
modifications: expressed or natural sequence
B17: RA237 (nucleic acid)
DNA: GCGCGTCCTGGATTCGCGGAAACGCGTACATCCAGCTGACGGAGAATACCAGCATCGTCTTGATGCCCTTGGAAGTCTCAGTCCCAAATAGGACGAAACGCGC
modifications: expressed or natural sequence
B18: RA209 (nucleic acid)
DNA: GCGCGTCCTGGATTCGCGGAGAGAATACCAGCATCGTCTTGATGCCCTTGGAAGTCTCAACGCGTACATCCAGCTGACGAGTCCCAAATAGGACGAAACGCGC
modifications: expressed or natural sequence
B19: RA216 (nucleic acid)
DNA: GCGCGTCCTGGATTCGCGGAAACGCGTACATCCAGCTGACGAGTCAGTGATACCAGCATCGTCTTGATGCCCTTGGCAGCACTCCAAATAGGACGAAACGCGC
modifications: expressed or natural sequence
B20: RA022 (nucleic acid)
DNA: GCGCGTCCTGGATTCGCGGAAACGCGTACAAGTGATACCAGCATCGTCTTGATGCCCTTGGCAGCACTTCCAGCTGACGAGTCCCAAATAGGACGAAACGCGC
modifications: expressed or natural sequence
B21: RA221 (nucleic acid)
DNA: GCGCGTCCTGGATTCGCGGAAACGCGTACATCCAGCTGACGGAATACCAGCATCGTCTTGATGCCCTTGGAAGTCCGCGAGTCCCAAATAGGACGAAACGCGC
modifications: expressed or natural sequence
B22: RA226 (nucleic acid)
DNA: B21 DNA with C40A, G42T, A43G, A71C, T74C, C75A, G77T
modifications: expressed or natural sequence
B23: RA220 (nucleic acid)
DNA: GCCGAGAATACCAGCATCGTCTTGATGCCCTTGGAAGTCTCGGCGTCCTGGATTCGCGGAAACGCGTACATCCAGCTGACGAGTCCCAAATAGGACGAAACGCGC
modifications: expressed or natural sequence
B24: RA232 (nucleic acid)
DNA: B23 DNA with G4C, A5G, T40C, C41G
modifications: expressed or natural sequence
B25: RA219 (nucleic acid)
DNA: GCGCGTCCTGGATTCGCGGAAACGCGTACATCCAGCGGAATACCAGCATCGTCTTGATGCCCTTGGAAGTCCTGACGAGTCCCAAATAGGACGAAACGCGC
modifications: expressed or natural sequence
B26: RA211 (nucleic acid)
DNA: GCGCGTCCTGGATTCGGGAATACCAGCATCGTCTTGATGCCCTTGGAAGTCCCGGAAACGCGTACATCCAGCTGACGAGTCCCAAATAGGACGAAACGCGC
modifications: expressed or natural sequence
B27: RA213 (nucleic acid)
DNA: GCGCGTCCTGGATTCGCGGAAACGCGTACATCCAGCTCGAGAATACCAGCATCGTCTTGATGCCCTTGGAAGTCTCGGACGAGTCCCAAATAGGACGAAACGCGC
modifications: expressed or natural sequence
B28: RA228 (nucleic acid)
DNA: GCGCGTCCTGGATTCGCGGAAACGCGTACATCCAGCTGGGAATACCAGCATCGTCTTGATGCCCTTGGAAGTCCACGAGTCCCAAATAGGACGAAACGCGC
modifications: chemistry not given here
B29: RA234 (nucleic acid)
DNA: GCGCGTCCTGGATTCGCGGAAACGCGTACATCCAGCTGACGAGTCCCAAATAGGACGAAACCGGAATACCAGCATCGTCTTGATGCCCTTGGAAGTCCGGCGC
modifications: expressed or natural sequence

System: Renilla luciferase RNA
Experiment: Barcoded aptazyme variant library screen: un-cleaved Renilla luciferase RNA by barcode read counts, HEK293-T cells
Type: cell-based
Settings: un-cleaved Renilla luciferase RNA, HEK293-T cells cultured with 1 mM theophylline (ON) over without theophylline (OFF); barcode read counts, triplicate
Procedure, shortened: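 Barcode sequencing of cDNA versus DNA, normalized per aptazyme, gave the un-cleaved Renilla luciferase RNA fraction and fold-change with versus without theophylline (triplicates). Library: T3H48 ribozyme with one of seven theophylline aptamer variants inserted at each position, placed in the Renilla 3′ UTR of a dual-luciferase vector.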

Point of comparison: B27, “Fold change in RNA expression between the ON state and the OFF state” value 1.2 fold. Against it:
- B1 — the same, 1.2 fold
- B2 — the same, 1.2 fold
- B3 — lower, 1.1 fold
- B4 — lower, 1.1 fold
- B5 — the same, 1.2 fold
- B6 — lower, 1.1 fold
- B7 — the same, 1.2 fold
- B8 — lower, 1.1 fold
- B9 — the same, 1.2 fold
- B10 — lower, 1.1 fold
- B11 — lower, 1.1 fold
- B12 — lower, 1.1 fold
- B13 — lower, 1.1 fold
- B14 — higher, 2.7 fold
- B15 — lower, 1.1 fold
- B16 — the same, 1.2 fold
- B17 — lower, 1.1 fold
- B18 — the same, 1.2 fold
- B19 — the same, 1.2 fold
- B20 — higher, 2.6 fold
- B21 — the same, 1.2 fold
- B22 — lower, 1.1 fold
- B23 — the same, 1.2 fold
- B24 — lower, 1.1 fold
- B25 — the same, 1.2 fold
- B26 — the same, 1.2 fold
- B28 — lower, 1.1 fold
- B29 — lower, 1.1 fold
